# Assay results reported in patent publication US20250043302A1, “MUTATED HYDROXYPHENYLPYRUVATE DIOXYGENASE POLYPEPTIDE, AND CODING GENE AND USE THEREOF” (BEIJING DABEINONG BIOTECHNOLOGY CO., LTD., priority 2021, published 2025).
# Legend:
# Format in all cases: in vivo
# [1] = test system: Arabidopsis thaliana T1 plants; experiment: Mesotrione tolerance of transgenic Arabidopsis thaliana T1 plants (spray, bleached leaf area grade, damage score); set-up: Scores: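 damage score 0-100 computed as Σ(N×S)/(T×M)×100 over grades 0-3 with higher meaning more damage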; settings: Arabidopsis thaliana T1 plants; for Grade 0 (classification and statistics of the grade of pesticide damage; number of plants) / Grade 1 (classification and statistics of the grade of pesticide damage; number of plants) / Grade 2 (classification and statistics of the grade of pesticide damage; number of plants) / Grade 3 (classification and statistics of the grade of pesticide damage; number of plants): 16 plants
# Outline: (§1)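 Read-out: per-plant damage grade 0–3 from proportion of bleached leaf area at 7 DAT (1 <50%, 2 >50%, 3 100%). Plants were T1 transformants, glufosinate-selected, plus wild-type CK, sprayed 18 days post-sowing. Rates: topramezone 25–200, isoxaflutole 35–280, mesotrione 52.5–420 g ai/ha.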
# [2] = test system: Arabidopsis thaliana T1 plants; experiment: Topramezone tolerance of transgenic Arabidopsis thaliana T1 plants (spray, bleached leaf area grade, damage score); settings: 7 DAT, Table 4; for Classification and statistics of the grade of pesticide damage: Grade 0 / Classification and statistics of the grade of pesticide damage: Grade 1 / Classification and statistics of the grade of pesticide damage: Grade 2 / Classification and statistics of the grade of pesticide damage: Grade 3: number of plants; for Scores: pesticide damage score 0-100
# Outline: as §1
# [3] = test system: Arabidopsis thaliana T1 plants; experiment: Isoxaflutole tolerance of transgenic Arabidopsis thaliana T1 plants (spray, bleached leaf area grade, damage score); set-up: Scores (pesticide damage): scale not given here; settings: spray, Arabidopsis thaliana T1 plants; for Classification and statistics of the grade of pesticide damage: Grade 0 (number of plants) / Classification and statistics of the grade of pesticide damage: Grade 1 (number of plants) / Classification and statistics of the grade of pesticide damage: Grade 2 (number of plants) / Classification and statistics of the grade of pesticide damage: Grade 3 (number of plants): 16 plants
# Outline: as §1
# [4] = isoxaflutole 35 g ai/ha (0.5x field concentration)
# [5] = isoxaflutole 70 g ai/ha (1x field concentration)
molecule,measurement,setting,value
"GmHPPDm-F372A-02: nucleotide sequence encoding Glycine max HPPD with F372A; vector DBN11747 (nucleic acid, GmHPPDm-F372A-02 Nucleotide Sequence, vector DBN11747) DNA: ATGCCAATGTACACACCATCGCTCTCCGCCCCTTCTTCCAACCATATTCAGCCATCCGTGACTCTGCCTCTCTACATCACAACCACCAAGTTGAACCTGAAGCAGCAGCACCATACGACTCCTATGCCTATACCCATGTGCAATGAGATCCAAGCACAGGCTCAGGCACAAGCTCAACCCGGATTCAAACTCGTGGGATTCAAGAACTTCGTCCGTACCAATCCAAAATCTGACCGCTTCCAGGTGAACAGATTCCACCACATAGAGTTTTGGTGTACTGATGCAACGAATGCTTCGAGGAGGTTTTCATGGGGCTTAGGCATGCCGATTGTAGCAAAGTCAGACCTTTCTACAGGGAACCAAATTCATGCAAGCTATCTGCTCCGCTCAGGTGATTTGTCTTTCTTGTTCTCAGCTCCATATTCTCCATCATTATCTGCTGGGTCATCAGCAGCATCTAGTGCGTCGATCCCTAGCTTTGATGCCGCCACCTGCCTCGCCTTCGCCGCCAAACATGGATTTGGTGTTCGCGCCATTGCTCTTGAGGTTGCCGATGCCGAGGCTGCTTTTAGCGCCTCCGTCGCCAAGGGAGCTGAGCCTGCGTCACCTCCTGTTCTTGTTGATGATCGAACTGGTTTTGCTGAAGTGCGTCTTTACGGCGACGTGGTGCTCAGATATGTTAGTTACAAGGATGCTGCTCCTCAAGCGCCGCACGCTGATCCTTCAAGATGGTTTCTTCCGGGGTTTGAGGCCGCTGCTAGTTCATCTTCCTTCCCGGAGTTGGATTACGGCATACGGCGGCTTGACCATGCTGTCGGCAATGTTCCTGAGCTTGCTCCGGCGGTACGGTACTTGAAAGGTTTCTCCGGGTTCCATGAATTTGCAGAGTTCACGGCGGAAGATGTTGGAACAAGTGAAAGCGGATTGAATTCTGTTGTTTTGGCCAACAACAGTGAAACTGTTCTGCTCCCCCTCAATGAACCAGTTTATGGCACAAAGCGCAAGAGCCAGATTGAAACATATCTCGAGCACAATGAAGGCGCCGGCGTCCAGCATCTTGCTTTGGTGACTCATGATATCTTCACAACACTTAGGGAGATGAGGAAGAGGAGTTTCCTCGGCGGGTTTGAATTCATGCCCAGTCCCCCGCCGACCTACTATGCAAATCTGCACAACAGGGCTGCAGATGTGCTGACTGTAGACCAGATCAAGCAATGTGAAGAACTTGGAATTTTAGTGGATAGAGACGACCAAGGTACACTACTTCAAATAGCCACCAAACCAGTCGGTGACAGACCAACAATTTTCATCGAGATTATACAAAGAATTGGATGCATGGTCGAGGATGAAGAAGGGAAGGTGTACCAGAAGGGAGCATGTGGTGGTTTTGGGAAAGGAAATTTTTCTGAGCTGTTTAAATCCATCGAGGAATATGAGAAAACCTTAGAAGCTAAAAGAACTGCATGA",Resistance evaluation,[1]; mesotrione 52.5 g ai/ha,Poorly resistant
same,Scores,[1]; mesotrione 52.5 g ai/ha,67
same,Grade 0 (classification and statistics of the grade of pesticide damage; number of plants),[1]; mesotrione 52.5 g ai/ha,0
same,Grade 1 (classification and statistics of the grade of pesticide damage; number of plants),[1]; mesotrione 52.5 g ai/ha,2
same,Grade 2 (classification and statistics of the grade of pesticide damage; number of plants),[1]; mesotrione 52.5 g ai/ha,12
same,Grade 3 (classification and statistics of the grade of pesticide damage; number of plants),[1]; mesotrione 52.5 g ai/ha,2
same,Resistance evaluation,[1]; mesotrione 105 g ai/ha,Non-resistant
same,Scores,[1]; mesotrione 105 g ai/ha,100
same,Grade 0 (classification and statistics of the grade of pesticide damage; number of plants),[1]; mesotrione 105 g ai/ha,0
same,Grade 1 (classification and statistics of the grade of pesticide damage; number of plants),[1]; mesotrione 105 g ai/ha,0
same,Grade 2 (classification and statistics of the grade of pesticide damage; number of plants),[1]; mesotrione 105 g ai/ha,0
same,Grade 3 (classification and statistics of the grade of pesticide damage; number of plants),[1]; mesotrione 105 g ai/ha,16
same,Classification and statistics of the grade of pesticide damage: Grade 0,[2]; topramezone 25 g ai/ha (1×),0
same,Classification and statistics of the grade of pesticide damage: Grade 1,[2]; topramezone 25 g ai/ha (1×),12
same,Classification and statistics of the grade of pesticide damage: Grade 2,[2]; topramezone 25 g ai/ha (1×),4
same,Classification and statistics of the grade of pesticide damage: Grade 3,[2]; topramezone 25 g ai/ha (1×),0
same,Classification and statistics of the grade of pesticide damage: Grade 0,[2]; topramezone 100 g ai/ha (4×),0
same,Classification and statistics of the grade of pesticide damage: Grade 1,[2]; topramezone 100 g ai/ha (4×),0
same,Classification and statistics of the grade of pesticide damage: Grade 2,[2]; topramezone 100 g ai/ha (4×),0
same,Classification and statistics of the grade of pesticide damage: Grade 3,[2]; topramezone 100 g ai/ha (4×),16
same,Scores,[2]; topramezone 25 g ai/ha (1×),42
same,Scores,[2]; topramezone 100 g ai/ha (4×),100
same,Resistance evaluation,[2]; topramezone 25 g ai/ha (1×),poorly
same,Resistance evaluation,[2]; topramezone 100 g ai/ha (4×),non-resistant (non-resistant plants (scores 68-100))
same,Resistance evaluation,[3]; [4],Poorly
same,Scores (pesticide damage),[3]; [4],65
same,Classification and statistics of the grade of pesticide damage: Grade 0 (number of plants),[3]; [4],0
same,Classification and statistics of the grade of pesticide damage: Grade 1 (number of plants),[3]; [4],3
same,Classification and statistics of the grade of pesticide damage: Grade 2 (number of plants),[3]; [4],11
same,Classification and statistics of the grade of pesticide damage: Grade 3 (number of plants),[3]; [4],2
same,Resistance evaluation,[3]; [5],Non-resistant
same,Scores (pesticide damage),[3]; [5],100
same,Classification and statistics of the grade of pesticide damage: Grade 0 (number of plants),[3]; [5],0
same,Classification and statistics of the grade of pesticide damage: Grade 1 (number of plants),[3]; [5],0
same,Classification and statistics of the grade of pesticide damage: Grade 2 (number of plants),[3]; [5],0
same,Classification and statistics of the grade of pesticide damage: Grade 3 (number of plants),[3]; [5],16
